In PMC3020078 one finds percent of the protein mass as full vaults and stoichiometry N (HisT7MVP:cpMVPvsvg) data, which are given here for two substances.

Values joined by “and” are separate entries in the source; they are usually repeats but may differ in a detail not shown here. Equal values may be shown once.

Assay [1] addresses cpMVP vaults (MVP with an N-terminal cysteine rich peptide). The experiment in a line: SAXS.
Assay [2] has as its target cpMVPvsvg vaults (MVP with an N-terminal cysteine rich peptide and a C-terminal VSVG tag). Nature of the assay: co-IP.

As for “cpMVP vaults (MVP with an N-terminal cysteine rich peptide) (natural protein)”, in assay [1], the percent of the protein mass as full vaults was 46% and 49%.

Take “HisT7MVP vaults (MVP with N-terminal T7 tag) (from UniProt Q62667 1-861) (natural protein)”: the stoichiometry N (HisT7MVP:cpMVPvsvg) in assay [2] came out at 0.8.
